Here are results for 167 variants from the RNAGym collection of RNA variant scans (doi:10.7554/elife.80360).

B1: HDV Ribozyme (parent)
chain: GGCCGGCAUGGUCCCAGCCUCCUCGCUGGCGCCGGCUGGGCAACAUUCCGAGGGGACCGUCCCCUCGGUAAUGGCGAAUGGGACCCA

The variants in the data set derive from B1. Nature of the data set: self-cleavage, relative activity (ratio to wild type); higher = more cleavage; co-transcriptional.
In the case of C14A C84U, the self-cleavage was determined as 0.262. On to U12G C26G, for which the self-cleavage was found to be 1.08.

For the variant A51C G59U, the self-cleavage is 0.762. As for C57U C66A, the self-cleavage was 0.878.

Turning to C18A G68U, the self-cleavage worked out at 0.147. Take C22U G73A: the self-cleavage is 0.192.

On to C19A C75U, for which the self-cleavage was determined as 0.058. Take G31C G67A: the self-cleavage is 0.402.

As to C49G U79C, the self-cleavage worked out at 0.631. As to G52C G53A, the self-cleavage is 0.733. With A8G C26G the figure was 1.36; with G34U C44A, 0.0545; with C61U A78U, 0.326. Then A16G G52A, with 0.975; and C66U C85U, with 0.888. Take U9G G54C: the self-cleavage was 0.831. Consider G11U G76C, for which the self-cleavage was found to be 0.532. C7G G74C: the self-cleavage amounted to 0.0475. G31A C57A: the self-cleavage amounted to 0.708. For G59U, the self-cleavage was found to be 0.997. Then C18G U65G, with 0.115; and G17A U23C, with 0.462; and G10A C14G, with 0.166.

Regarding G50A C66U, the self-cleavage stood at 0.989. Then G6A G52C, with 0.831. With G53A G80C the figure was 0.351; with G29C G80A, 0.0692; with G31C C63G, 0.34. With G2C C57G the figure was 0.0228; with C36G U47G, 0; with C32U A43U, 0.491. As to U27A G81A, the self-cleavage was 0.914. Then A71G G82C, with 0.151; and G29C G68U, with 0.0302.

As to G28C G29C, the self-cleavage was found to be 0.0504. Consider C21U C26G, for which the self-cleavage is 0.406. For the variant G11A G59A, the self-cleavage was 0.38. Then G52C G82A, with 0.712; and G38C A83C, with 0.107; and A42G G80U, with 0.095. As for G52A A71C, the self-cleavage was 0.744. As to G11A U47A, the self-cleavage is 0.249.

On to G31A C48G, for which the self-cleavage came to 0.456. With C15U U65A, the self-cleavage was 0.831. As for C33A A78C, the self-cleavage turned out to be 0.0997. Then A16G G80U, with 0.208. Turning to G54U G80U, the self-cleavage is 0.203. Regarding G10C G39A, the self-cleavage was determined as 0.259.

G10U U65A: the self-cleavage is 0.665. Turning to C7U A51C, the self-cleavage was found to be 0.643.

As to G35U G40A, the self-cleavage worked out at 0.304. With A8C C41G, the self-cleavage is 0.457. With C49U C58G, the self-cleavage amounted to 1.01. In the case of G29C U69G, the self-cleavage worked out at 0.0504. U12G U46C: the self-cleavage was 1.02.

Consider C24A C84G, for which the self-cleavage is 0.563. In the case of C4U G10A, the self-cleavage was found to be 0.35. With A16U A43U the figure was 0.443; with G29U G31A, 0.135; with G11A G29U, 0.12.

Turning to G53U C86G, the self-cleavage was determined as 1.12. Regarding C4U G59U, the self-cleavage is 0.973. Turning to G29C C48A, the self-cleavage was 0.

On to C13A C57U, for which the self-cleavage amounted to 0.175. For the variant U12G G28C, the self-cleavage was found to be 0. Turning to G73U G76C, the self-cleavage came out at 0.158. G81U C86A: the self-cleavage is 0.652. Consider G35U C66G, for which the self-cleavage was 0.458.

Regarding C22U G76C, the self-cleavage turned out to be 0.763. Consider G6U C18G, for which the self-cleavage was found to be 0. Consider C44G G73C, for which the self-cleavage was 0.655. With G39U C66G the figure was 0.831. In the case of C14A A87C, the self-cleavage was 0.643.

In the case of C49A G76C, the self-cleavage was 1.22.

Turning to G29C U46G, the self-cleavage amounted to 0.0723. Turning to G17U G68C, the self-cleavage amounted to 0.542. C48G C61G: the self-cleavage worked out at 1.06. Then G52A A56C, with 1.11; and G1A C57U, with 0. For G55C C86U, the self-cleavage was 1.12. With G10A A71U the figure was 0.712. Then G10A C64A, with 0.646. As for G31C C36G, the self-cleavage came to 0. Then C44A G76C, with 0.614. For the variant C44G G55A, the self-cleavage was 0.787. Turning to G1U G54A, the self-cleavage is 0.277. For the variant U23G G54U, the self-cleavage is 0.9. In the case of C30A A71U, the self-cleavage was 0.386. With C44A A71G, the self-cleavage stood at 0.427. On to C22U A42C, for which the self-cleavage was determined as 0.122. In the case of C14U C36U, the self-cleavage was found to be 0.96. G52U G82U: the self-cleavage turned out to be 0.382. Regarding G2C G52U, the self-cleavage worked out at 0.032. Then G11A G35C, with 0.0536. As for C22U G29A, the self-cleavage worked out at 0.249.

On to C64A G68A, for which the self-cleavage worked out at 0.537. Take G2U U23G: the self-cleavage is 0.0287. In the case of C14U G82A, the self-cleavage turned out to be 0.323.

Regarding U27C C61U, the self-cleavage amounted to 0.978. With C44A G81C the figure was 0.178; with G5C C85U, 0.277. Regarding G11U C57A, the self-cleavage amounted to 0.447. As to G2A G53C, the self-cleavage amounted to 0.348. With G29C C57U the figure was 0.0604.

In the case of A16G G74C, the self-cleavage is 0.435. Regarding U37A A78U, the self-cleavage amounted to 0.0369. Consider C22G U23A, for which the self-cleavage amounted to 0.0941. On to C63A C86G, for which the self-cleavage was 1.02. For C26A G29U, the self-cleavage is 0.032. In the case of G31A G55A, the self-cleavage was determined as 0.376. Take C41U A51U: the self-cleavage came out at 0.932. Regarding G25C G35A, the self-cleavage came to 0.0346. With G11U G34U, the self-cleavage is 0.0252.

In the case of C22A A51C, the self-cleavage came to 0.341. C15A G28U: the self-cleavage was 0.0615. Then G6C G31A, with 0.277. Turning to U72G A77G, the self-cleavage came to 0.178.

With A56U G81U, the self-cleavage was determined as 0.381. Take C13U C30G: the self-cleavage was found to be 0.198.

C15G C66U: the self-cleavage amounted to 0.573. Turning to C3U G81A, the self-cleavage amounted to 0.17. Regarding C4G A51G, the self-cleavage stood at 0.554. As for C32U G40A, the self-cleavage is 0.987. In the case of C44A C63A, the self-cleavage worked out at 0.882. For C19U C22A, the self-cleavage stood at 0.0886.

Regarding C24A U47A, the self-cleavage was 0.554. C19A C84A: the self-cleavage was determined as 0.0519. With C62A U65C the figure was 0.969; with G1U G11C, 0.288; with C26G G82A, 0.813. In the case of C26G C84A, the self-cleavage is 1.09.

On to G17U G50C, for which the self-cleavage was 0.496.

For G38C C63G, the self-cleavage worked out at 0.287. With C19U U23C the figure was 0; with C18G U69A, 0.0489; with C7A C22A, 0.0941.

Consider U46G C75A, for which the self-cleavage stood at 0.208. On to C19A G76C, for which the self-cleavage amounted to 0.102. On to C64G A87U, for which the self-cleavage stood at 0.786.

Regarding G10U G28C, the self-cleavage came out at 0.0941. Regarding U37A U65G, the self-cleavage amounted to 0.244. As for C41U G80C, the self-cleavage was found to be 0.188.

In the case of C14A U23C, the self-cleavage turned out to be 0.997. With A43C A87U the figure was 0.59; with A16G C49A, 1.08. Take C3A C84U: the self-cleavage is 0.157. As for C26A, the self-cleavage was determined as 1.01. As for G74U G76U, the self-cleavage stood at 0.794. With G28C C36U the figure was 0.145; with U9G C75G, 0.0791; with G34U A56U, 0.18. With G50A C57A, the self-cleavage worked out at 0.972. Then G34U G76C, with 0.0821; and C58A G67C, with 0.886. With G2A C58U the figure was 0.113. For A56C G80U, the self-cleavage came out at 0.253. As to G17A C32U, the self-cleavage is 0.369. Regarding C14A G40U, the self-cleavage was 0.261. Take C13G G55A: the self-cleavage was determined as 0.0875.

As for U12C C26G, the self-cleavage was 0.914. With G81C A83C, the self-cleavage stood at 0.222. For C15G C57G, the self-cleavage came to 0.692. With U27C A77G, the self-cleavage was 0.798. For the variant C66G C84A, the self-cleavage was determined as 0.923. Take A42C C84U: the self-cleavage turned out to be 0.224. Then C18G A71C, with 0.172; and G1A A16G, with 0.302.
